Here are results for eleven molecules from patent US20120009181A1, “Folate Receptor 1 Antibodies and Immunoconjugates and Uses Thereof” (published 2012).

Substitutions are numbered along the chain they refer to.

The target of test [1] is human folate receptor 1 (FOLR1) (human). Put plainly: column head 'Apparent affinity (nM)'; method not restated (analyzed as described above: flow cytometry on FOLR1-expressing cells). (In general: A flow cytometer gives signals particle by particle.)
Test [2] shares this target. Description: cell-based or functional assay.
Test [3] has the same target. Put plainly: cell-based or functional assay. The source holds these as a separate data set.
For test [4] the target is unchanged. Put plainly: cell-based or functional assay. The source holds these as a separate data set.

Chain of human folate receptor 1 (FOLR1) (human) (chain, as listed by the source limits assumed): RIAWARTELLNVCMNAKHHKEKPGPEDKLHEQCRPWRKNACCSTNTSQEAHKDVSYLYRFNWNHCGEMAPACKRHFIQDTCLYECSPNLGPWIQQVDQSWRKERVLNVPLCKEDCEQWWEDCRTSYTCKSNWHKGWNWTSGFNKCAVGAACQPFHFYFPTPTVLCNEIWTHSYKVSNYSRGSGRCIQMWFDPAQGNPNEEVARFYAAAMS

B1: huMov19 (antibody, V domains shown)
VH: QVQLVQSGAEVVKPGASVKISCKASGYTFTGYFMNWVKQSPGQSLEWIGRIHPYDGDTFYNQKFQGKATLTVDKSSNTAHMELLSLTSEDFAVYYCTRYDGSRAMDYWGQGTTVTVSS
VL: DIVLTQSPLSLAVSLGQPAIISCKASQSVSFAGTSLMHWYHQKPGQQPRLLIYRASNLEAGVPDRFSGSGSKTDFTLNISPVEAEDAATYYCQQSREYPYTFGGGTKLEIKR
As to B1, the Kd in test [1] turned out to be 0.06 nM.

B2: huMov19-SPP-DM1 (antibody, V domains shown)
VH: B1 VH
VL: B1 VL with N78T
modifications: maytansinoid DM1 linked to the antibody through the SPP linker, 3.5-4 DM1 per antibody; attachment residues not stated
With B2, in test [2], the “IC50, nM (n = 3), Ab-based; in vitro cytotoxicity on IGROV-1 cells” value turned out to be 0.1 nM; the “IC50, nM (n = 3), Ab-based; in vitro cytotoxicity on JEG-3 cells” value was determined as 0.2 nM; the “IC50, nM (n = 3), Ab-based; in vitro cytotoxicity on KB cells” value came out at 0.1 nM.

B3: huFR1-57 (antibody, V domains shown)
VH: EVQLVESGGGLVQPGGSRRLSCAASGFTFSSFGMHWVRQAPGKGLEWVAYISSGSSTISYADSVKGRFTISRDNSKKTLLLQMTSLRAEDTAMYYCAREAYGSSMEYWGQGTLVTVSS
VL: EIVLTQSPATLSVTPGDRVSLSCRASQNINNNLHWYQQKPGQSPRLLIKYVSQSVSGIPDRFSGSGSGTDFTLSISSVEPEDFGMYFCQQSNSWPHYTFGQGTKLEIKR
Regarding B3, the Kd in test [1] worked out at 0.14 nM.

B4: huFR1-57-SMCC-DM1 (antibody, V domains shown)
VH: B3 VH
VL: B3 VL
modifications: maytansinoid DM1 linked to the antibody through the SMCC linker; drug load and attachment residues not stated
Take B4: the “huAb-smcc-DM1 activity on KB in vitro” value in test [3] is 0.1 nM.

B5: huFR1-65 (antibody, V domains shown)
VH: QVQLVQSGAEVAKPGASVKMSCKASGYTFTSYTMHWVKQRPGQGLAWIGYINPISGYTNYNQKFQGKATLTADKSSSTAYMQLNSLTSEDSAVYYCASGGAYGRKPMDYWGQGTSVTVSS
VL: EIVMTQSPATMSTSPGDRVSVTCKASQNVGPNVAWYQQKPGQSPRALIYSASYRYSGVPARFTGSGSGTDFTLTISNMQSEDLAEYFCQQYNSYPYTFGQGTKLEIKR
B5: in test [1], the Kd amounted to 0.15 nM.

B6: huFR1-65-SMCC-DM1 (antibody, V domains shown)
VH: B5 VH
VL: B5 VL
modifications: maytansinoid DM1 linked to the antibody through the SMCC linker; drug load and attachment residues not stated
Take B6: the “huAb-smcc-DM1 activity on KB in vitro” value in test [3] was found to be 0.1 nM.

B7: huFR1-48 (antibody, V domains shown)
VH: QVQLVQSGAEVAKPGASVKLSCKASGYTFTNYWMQWIKQRPGQGLEWIGAIYPGNGDSRYTQKFQGKATLTADKSSSTAYMQVSSLTSEDSAVYYCARRDGNYAAYWGQGTLVTVSA
VL: DIQMTQSPSSLSVSVGERVTITCRASENIYSNLAWYQQKPGKSPKLLVYAATNLADGVPSRFSGSESGTDYSLKINSLQPEDFGSYYCQHFWASPYTFGQGTKLEIKR
On to B7, for which, in test [1], the Kd is 0.13 nM.

B8: huFR1-49 (antibody, V domains shown)
VH: QVQLQQSGAVVAKPGASVKMSCKASGYTFTNYWMYWIKQRPGQGLELIGAIYPGNSDTTYNQKFQGKATLTAVTSANTVYMEVSSLTSEDSAVYYCTKRHDYGAMDYWGQGTSVTVSS
VL: B7 VL with S31T, A50T, T52S, E66G, S85T, A93V
With B8, in test [1], the Kd was 0.08 nM.

B9: huFR1-48-SMCC-DM1 (antibody, V domains shown)
VH: B7 VH
VL: B7 VL
modifications: maytansinoid DM1 linked to the antibody through the SMCC linker; drug load and attachment residues not stated
On to B9, for which the “huAb-smcc-DM1 activity on KB in vitro” value in test [3] amounted to 0.05 nM.

B10: huFR1-49-SMCC-DM1 (antibody, V domains shown)
VH: B8 VH
VL: B7 VL with S31T, A50T, T52S, E66G, S85T, A93V
modifications: maytansinoid DM1 linked to the antibody through the SMCC linker; drug load and attachment residues not stated
With B10, in test [3], the “huAb-smcc-DM1 activity on KB in vitro” value was 0.1 nM.

B11: huFR1-21 (antibody, V domains shown)
VH: EVQLVESGGDVVKPGGSLKLSCAASGFTFSSYGMSWVRQTPGKGLECVATISSGGSYTYYSPGFQGRFTISRDKSKNTLYLQMSSLKAEDTAMYYCARDGEGGLYAMDYWGQGTSVTVSS
VL: DIQMTQSSSSLSVSVGGRVTITCKASDHINNWLAWYQQKPGKAPKLLISGATSLETGVPSRFSGSGSGKDYTLSISSLQPEDVATYYCQQYWSTPFTFGQGTKLEIKR
As for B11, the “EC50 of ADCC activity on IGROV-1 cells” value in test [4] worked out at 0.11 ng/mL.
